According to US20220195055A1 (SHANDONG BOAN BIOTECHNOLOGY, published 2022):
Where two headings read alike, the source gives them in different places.

T1: CD25 on cells (SU-DHL-1 target cells; PBMC) (UniProt P01589 22-272, limits assumed)
T1 sequence (looked up): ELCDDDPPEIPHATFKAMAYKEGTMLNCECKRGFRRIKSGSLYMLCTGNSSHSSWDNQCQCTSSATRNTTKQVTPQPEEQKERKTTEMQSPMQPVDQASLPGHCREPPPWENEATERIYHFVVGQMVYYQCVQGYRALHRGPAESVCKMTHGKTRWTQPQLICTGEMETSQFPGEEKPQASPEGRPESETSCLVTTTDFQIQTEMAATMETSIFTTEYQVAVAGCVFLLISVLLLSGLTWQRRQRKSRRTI

T2: CD25 protein (Sino Biological, 10165-H08H) (UniProt P01589 22-213)
T2 construct: Bought recombinant protein; It speaks elsewhere of human CD25; also called antigen CD25; IL-2Rα
T2 sequence (looked up): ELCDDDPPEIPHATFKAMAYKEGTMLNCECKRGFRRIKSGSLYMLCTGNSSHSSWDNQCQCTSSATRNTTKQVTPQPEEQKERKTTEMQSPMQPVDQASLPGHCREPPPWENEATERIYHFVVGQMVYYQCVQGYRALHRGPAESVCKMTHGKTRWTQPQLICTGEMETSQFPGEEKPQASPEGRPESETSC

B1: CD25Q11-CT848-IgG1 (antibody, V domains shown)
VH: QVQLQQWGAGLLKPSETLSLTCAVYGGSFSGSYWSWIRQSPRKGLEWIGEIDHSGSTIANPSLKSRITISLDTSKNQFFLQLRSMTAADTAVYYCARGEAFDIWGQGTMVTVSS
VL: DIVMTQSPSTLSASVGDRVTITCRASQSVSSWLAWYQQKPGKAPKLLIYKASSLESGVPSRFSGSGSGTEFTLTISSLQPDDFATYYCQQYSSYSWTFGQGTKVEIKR
notes: IgG1 expressed in HEK293
B2: CD25Q8-BT942-IgG1 (antibody, V domains shown)
VH: QVQLVQSGAEVKKPGSSVKVSCKASGGTFSSDAINWVRQAPGQGLEWMGRIIPIFGVADYAQKFQGRVTLTADKSTSTAYMDLSSLRSEDTAVFYCARERGDYSNFWYFDLWGRGTLVTVSS
VL: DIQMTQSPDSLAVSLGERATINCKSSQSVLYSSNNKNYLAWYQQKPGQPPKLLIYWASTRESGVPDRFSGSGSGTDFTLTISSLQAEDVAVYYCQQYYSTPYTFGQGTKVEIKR
notes: IgG1 expressed in HEK293
B3: CD25-MA251-IgG1 (antibody, V domains shown)
VH: QVQLKESGPGLVAPSQSLSITCTVSGFSLTSYGIQWVRQPPGKGLEWLGVIWAGGSTNYNSALMSRLSISKDNSKSQVFLKMNSLQTDDTAMYYCARAYGYDGSWLAYWGQGTLVTVSS
VL: QIVLSQSPAILSASPGEKVTMTCRASSSVSYMHWYQQKPGSSPKPWIFATSNLASGVPARFSGSGSGTSYSLTINRVEAEDADTYYCQQWSSNPPTFGGGTKLEIKR
notes: also called CD25Q-MA251; control antibody

How the values were obtained:
[1] = molecular target: T1, CD25 on cells (SU-DHL-1 target cells; …); assay: cell-based or functional assay
[2] = molecular target: T2, CD25 protein (Sino Biological, …); assay: SPR (BIAcore 8K); antibody captured by anti-human IgG Fc, CD25 protein as analyte, 1:1 model
Method: Antibody binding kinetics uses BIAcore8K instrument based on surface plasmon resonance (SRP) technology to measure. Anti-human IgG antibody amino was coupled to a CMS biosensor chip by the GE anti Human IgG Fc amino coupling kit (GE, cat # BR-1008-39) to obtain approximately 1000 response units (RU). For kinetic measurements, the CD25 protein (Sino Biological, 10165-H08H) was diluted 2-fold continuously with HBS-EP+1×(GE, BR-1008-26) buffer, starting at 50 nM, being diluted 2-fold for 4 concentration gradients and setting 0 concentration. The antibody to be detected: 2 μg/ml, sample injection time 70 s, flow rate 5 μL/min, stable for 5 s; CD25 protein: binding for 60 s, flow rate 30 μL/min, dissociation for 450 s; regeneration: regeneration was performed for 30 s with 3M MgCl₂ buffer, Startup 3 times. The association constant (ka) and dissociation constant (kd) were calculated using a simple one-to-one Languir binding model (BIAcore Evaluation Software version 3.2), and the equilibrium dissociation constant (KD) was calculated by the ratio kd/ka.

[3] = molecular target: T2, CD25 protein (Sino Biological, …); assay: ELISA; CD25 protein coated in a dilution series, antibody at one fixed concentration, anti-human IgG/HRP
Excerpt: (§1) The results are shown in FIG. 2A to FIG. 2E and Table 2 to Table 6.

[4] = molecular target: T1, CD25 on cells (SU-DHL-1 target cells; …); assay: cell-based or functional assay; remark: listed apart in the source
[5] = molecular target: T1, CD25 on cells (SU-DHL-1 target cells; …); assay: cell-based or functional assay; remark: listed apart in the source
[6] = molecular target: T2, CD25 protein (Sino Biological, …); assay: ELISA; CD25 protein coated in a dilution series, antibody at one fixed concentration, anti-human IgG/HRP; remark: listed apart in the source
Excerpt: as §1

[7] = molecular target: T2, CD25 protein (Sino Biological, …); assay: as above; remark: listed apart in the source
Excerpt: as §1

[8] = molecular target: T2, CD25 protein (Sino Biological, …); assay: as above; remark: listed apart in the source
Excerpt: as §1

[9] = molecular target: T2, CD25 protein (Sino Biological, …); assay: as above; remark: listed apart in the source
Excerpt: as §1

| Binder | % PSTAT5 in CD3 positive T cells of PBMC after IL2, with 10 µg/mL antibody [1] [%] | Kd [2] [nM] | koff [2] [s⁻¹] | kon [2] [M⁻¹ s⁻¹] | EC50 [3] [mg/L] | EC50 of simulated killing activity (Jurkat effector reporter cells, SU-DHL-1 target cells, luminescence) [4] [mg/L] | EC50 of simulated killing activity (Jurkat effector reporter cells, SU-DHL-1 target cells, luminescence) [5] [mg/L] | EC50 [6] [mg/L] | EC50 [7] [mg/L] | EC50 [8] [mg/L] | EC50 [9] [mg/L] |
| --- | --- | --- | --- | --- | --- | --- | --- | --- | --- | --- | --- |
| B1 | 15.8 | 3.09 | 0.00218 | 705000 | 0.00916 |  |  |  |  |  |  |
| B2 | 16.5 | 3.79 | 0.000339 | 89600 | 0.00226 |  |  |  |  |  |  |
| B3 | 18.5 | 5.19 | 0.000912 | 176000 | 0.0245 | 0.361 | 0.255 | 0.0106 | 0.0141 | 0.017 | 0.0121 |
